Data: patent US20210309754A1 (JCR PHARMACEUTICALS, published 2021)
Each block holds one binder with its values, some of them ahead of it.

Molecular target: T1, recombinant monkey TfR (r monkey TfR: Sino Biological Inc.), cynomolgus monkey TfR extracellular region with … (cynomolgus monkey (Macaca fascicularis), UniProt Q5RDH6 89-760 (Pongo abelii entry))
T1 construct: Bought (Sino Biological); also called r monkey TfR-ECD (Histag); not shown: histidine tag attached to the N-terminus
T1 chain: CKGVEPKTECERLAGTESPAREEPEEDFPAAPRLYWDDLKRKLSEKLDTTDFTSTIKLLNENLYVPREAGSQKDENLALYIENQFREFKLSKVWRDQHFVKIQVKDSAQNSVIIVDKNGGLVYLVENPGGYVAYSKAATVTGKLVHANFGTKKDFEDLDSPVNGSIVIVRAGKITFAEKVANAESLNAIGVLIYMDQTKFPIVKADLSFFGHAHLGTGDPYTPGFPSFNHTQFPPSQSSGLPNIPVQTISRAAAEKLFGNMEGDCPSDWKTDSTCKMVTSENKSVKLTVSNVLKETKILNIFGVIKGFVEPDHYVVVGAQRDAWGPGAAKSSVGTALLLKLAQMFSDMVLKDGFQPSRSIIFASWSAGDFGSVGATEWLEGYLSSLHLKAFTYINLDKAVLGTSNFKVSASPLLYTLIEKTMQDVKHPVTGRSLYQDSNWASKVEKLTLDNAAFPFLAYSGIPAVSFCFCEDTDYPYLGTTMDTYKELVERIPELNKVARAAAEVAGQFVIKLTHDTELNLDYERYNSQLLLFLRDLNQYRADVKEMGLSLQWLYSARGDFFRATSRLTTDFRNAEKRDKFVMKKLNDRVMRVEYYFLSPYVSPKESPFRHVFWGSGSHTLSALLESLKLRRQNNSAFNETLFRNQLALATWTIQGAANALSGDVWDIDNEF
Test: BLI, Octet RED96, His-TfR ECD on Ni-NTA sensor
Method: By measuring the variations of this shift between the interfering waves, determination of the number of the molecules bound to the layer of the biomolecules immobilized to the sensor tip surface and kinetic analysis of it can be performed in real time. The measurement was performed according generally to the operating manual attached to Octet RED96. As a human TfR, a recombinant human TfR (r human TfR: Sino Biological Inc.) was used, which had the amino acid sequence of the hTfR extracellular region, i.e., the cysteine residue at the position 89th from the N-terminal side to the phenylalanine at the C-terminus, of the amino acid sequence set forth as SEQ ID NO:1, with a histidine tag attached to the N-terminus. As a monkey TfR, a recombinant monkey TfR (r monkey TfR: Sino Biological Inc.) was used, which had the amino acid sequence of the cynomolgus monkey TfR extracellular region, i.e., the cysteine residue at the position 89th from the N-terminal side to the phenylalanine at the C-terminus, of the amino acid sequence set forth as SEQ ID NO:2, with a histidine tag attached to the N-terminus. […]

Kd: 477 pM
B1: anti-hTfR antibody No. 6 (antibody, V domains shown)
VH: EVQLQESGPGLVAPSQSLSITCSVSGFSLSTYGVYWVRQPPGKGLEWLGIIWGDGSTNYHSALISRLTISKDNSKSQVFLKLNSLQTADTATYYCAKPDDVWGAGTTVTVSS
VL: DIVLTQTPSSLSASLGERVSLTCRASQEISGYLSWLQQKPDGTIKRLIYAASTLDSGVPKRFSGSRSGSDYSLTISSLESEDFADYYCLQYSSYPRTFGGGTKLEIK
notes: Mouse monoclonal antibody from a hybridoma, purified on Protein G; also called mouse anti-hTfR antibody No. 6; antibody of Clone 6 line

koff: 1.75e-05 s⁻¹
B2: anti-hTfR antibody No. 2 (antibody, V domains shown)
VH: EVQLQESGAELVRPGVSVKISCKGSGYTFTDYVMHWVRQSHAKSLEWIGVISTYYGHGSYNQRFKGKATMTVDKSSSTAYLELVRLTSEDSAIYYCVRGGYGSSSLAGNFDVWGAGTTVTVSS
VL: DIVLTQSPATLSVTPGDSVSLSCRASQSISNNLQWYQQKSHESPRLLIKYASQSISGIPSRFSGSGSGTDFTLSINSVETEDFGMYFCQQSNSWPRTFGAGTKLELKR
notes: Mouse monoclonal antibody from a hybridoma, purified on Protein G; also called mouse anti-hTfR antibody No. 2; antibody of Clone 2 line
